Patent US7482138 (TRUSTEES OF COLUMBIA UNIVERSITY IN THE CITY OF NEW YORK, dated 2009)

Biological target: Rac1V12, pre-loaded with [γ-32P] GTP (UniProt P63000 1-192)
Assay: overlay assay, immobilised Myc-tagged kinase probed with [γ-32P] GTP-loaded GTPase
Description: PAK4 and PAK5 interact with activated Rac and Cdc42. 293 cells were transfected with equal amounts of expression vectors, encoding the following Myc-tagged proteins: wild type PAK4 (Myc-PAK4), wild type PAK5 (Myc-PAK5), or PAK5ΔGBD. After transient expression, the Myc-tagged proteins were immunoprecipitated from whole cell lysates using a mouse anti-Myc antibody and protein A sepharose. The immunocomplexes were separated by SDS-PAGE and transferred to a PVDF membrane. The membranes were then probed with purified RhoV14, Rac1V12 or Cdc42V12, as indicated. The GTPases were pre-loaded with [γ-^32P] GTP as described in the Materials and Methods. A portion of the lysate was used for Western blot analysis (WB) with an anti-Myc antibody to measure the amount of each transfected protein in the lysates.
The overlay assay is described in (27). Briefly, 293 cells were transfected with 10 µg of empty vector, MycPAK4, or Myc-PAK5. PAK4 and PAK5 were then immunopurified using anti-Myc antibody (9E10, Santa Cruz) and the immunopurified proteins were separated on SDS-PAGE and transferred to a PVDF membrane. The membrane was then washed and blocked with phosphate-buffered saline (PBS) containing 1% bovine serum albumin (BSA) and 100 mM dithiothreitol (DTT). Recombinant GTPases (2 µg) were pre-loaded with [γ-^32P] GTP and were incubated for 5 min with the PVDF membrane. […]

B1: Myc-tagged wild type PAK5 (human p21-activated kinase 5) (enzyme, not shown: small tags and cut ends)
chain: MFGKKKKKIEISGPSNFEHRVHTGFDPQEQKFTGLPQQWHSLLADTANRPKPMVDPSCITPIQLAPMKTIVRGNKPCKETSINGLLEDFDNISVTRSNSLRKESPPTPDQGASSHGPGHAEENGFITFSQYSSESDTTADYTTEKYREKSLYGDDLDPYYRGSHAAKQNGHVMKMKHGEAYYSEVKPLKSDFARFSADYHSHLDSLSKPSEYSDLKWEYQRASSSSPLDYSFQFTPSRTAGTSGCSKESLAYSESEWGPSLDDYDRRPKSSYLNQTSPQPTMRQRSRSGSGLQEPMMPFGASAFKTHPQGHSYNSYTYPRLSEPTMCIPKVDYDRAQMVLSPPLSGSDTYPRGPAKLPQSQSKSGYSSSSHQYPSGYHKATLYHHPSLQSSSQYISTASYLSSLSLSSSTYPPPSWGSSSDQQPSRVSHEQFRAALQLVVSPGDPREYLANFIKIGEGSTGIVCIATEKHTGKQVAVKKMDLRKQQRRELLFNEVVIMRDYHHDNVVDMYSSYLVGDELWVVMEFLEGGALTDIVTHTRMNEEQIATVCLSVLRALSYLHNQGVIHRDIKSDSILLTSDGRIKLSDFGFCAQVSKEVPKRKSLVGTPYWMAPEVISRLPYGTEVDIWSLGIMVIEMIDGEPPYFNEPPLQAMRRIRDSLPPRVKDLHKVSSVLRGFLDLMLVREPSQRATAQELLGHPFLKLAGPPSCIVPLMRQYRHH
notes: also called Myc-PAK5
- binding result: binds
